This data set can be described thus: soluble on expression in E. coli; label from the status in PepcDB or PDB records.
In the case of “MDGTIKEALSVVSDDQSLFDSAYGAAAHLPKADMTASGSPDYGQPHKINPLPPQQEWINQPVRVNVKREYDHMNGSRESPVDCSVSKCSKLVGGGESNPMNYNSYMDEKNGPPPPNMTTNERRVIVPADPTLWTQEHVRQWLEWAIKEYSLMEIDTSFFQNMDGKELCKMNKEDFLRATTLYNTEVLLSHLSYLRESSLLAYNTTSHTDQSSRLSVKEDPSYDSVRRGAWGNNMNSGLNKSPPLGGAQTISKNTEQRPQPDPYQILGPTSSRLANPGSGQIQLWQFLLELLSDSANASCITWEGTNGEFKMTDPDEVARRWGERKSKPNMNYDKLSRALRYYYDKNIMTKVHGKRYAYKFDFHGIAQALQPHPTESSMYKYPSDISYMPSYHAHQQKVNFVPPHPSSMPVTSSSFFGAASQYWTSPTGGIYPNPNVPRHPNTHVPSHLGSYY”, the “soluble on expression in E. coli” value is recorded as “soluble”.

Turning to “MDHENLMKYLEEFRSIRFQPDFQKVDAERNVRYCEITDFPISNISFELLETGVSQQWRNCDQNLFNEYLKTYKNGGYSQFEDLLFKIWGYSEEKERFDLPALKSFYRKMSEIVGEDEVLEKLARLVRITKSACEVLPEKIYRLVGDIESATFSHIQCASLIAWMFFSDTPRLSFIIILQKTTCVAVEKLKFLFTYFDKMSIDPPIGAVSFRKMRITHKQYLENWKLRETNLLPDVQVFDKMSIEETALCTQIDFANKRLGGGVLKGGAVQEEIRFMMCPEMMVAILLNDVTQDLEAISIVGAYVFSSYTGYSNTLKWAKITPKHSAQNNNSFRDQFGRLQTETVAIDAVRNAGTPLECLLNQLTTEKLTREVRKAAIGFLSAGDGFSKIPVVSGWWGCGAFRGNKPLKFLIQVIACGISDRPLQFCTFGDTELAKKCEEMMTLFRNNNVRTGQLFLIINSIGPPLNYSEQYVFDAIRAKINSTKA”, the “soluble on expression in E. coli” value is “not soluble”.

Take “MDIFYKKIKANVTPEVLAQLHSKKIILESTNQQQTKGRYSVVIFDIYGTLTLDNDVLSVSTLKESYQITERPYHYLTTKINEDYHNIQDEQLKSLPFISGYVGTCSFDLVRHEFPKLQSIQLEDHKQHDVRLYMVEQVYVFDHYKDELYIIATNQFSNSTKSDLENRVIKSIEDLTKIQPFMPTQDFDFKTKEIQSNISEERFIEMIQYFKEKITEGDMFQVVPSRIYKYAHHASQHLNQLSFQLYQNLKRQNPSPYMYYLNIDQPYIVGSSPESFVSVKDQIVTTNPIAGTIQRGETTQIDNENMKQLLNDPKECSEHRMLVDLGRNDIHRVSKIGTSKITKLMVIEKYEHVMHIVSEVTGKINQNLSPMTVIANLLPTGTVSGAPKLRAIERIYEQYPHKRGVYSGGVGYINCNHNLDFALAIRTMMIDEQYINVEAGCGVVYDSIPEKELNETKLKAKSLLEVSP”: the “soluble on expression in E. coli” value was “not soluble”.

On to “MDIKINDITLGNNSPFVLFGGICVLESLDSTLQTCAHYVEVTRKLGIPYIFKASFDKANRSSIHSYRGVGLEEGLKIFEKVKAEFGIPVITDVHEPHQCQPVAEVCDVIQLPAFLARQTDLVVAMAKTGNVVNIKKPQFLSPSQMKNIVEKFHEAGNGKLILCERGSSFGYDNLVVDMLGFGVMKQTCGNLPVIFDVTHSLQTRDAGSAASGGRRAQALDLALAGMATRLAGLFLESHPDPKLAKCEGASALPLHLLEDFLIRIKALDDLIKSQPILTIE”, for which the “soluble on expression in E. coli” value was “soluble”.

As to “MDILVLRVDVPKEGFARKLGAHETVFAADDGAVGKVQQLVEVLLRHERDFDEADGCRLKNIAVVLQGILRNNAALFEAVDDLRPRQQQCHRAACLSPHFQPLCPNIAPIAEKQPFGGVFFGQHQPLSQGFSIETDGFAVITFAYQPAAFFAETHKPKIFLNTLLRRRHQMQPFIAFLRAQIFPIQPKRLVSADNVQHIFGQVAGKSFDDDIGNRRGINICRIGMPSADMNILMNAGNIGQIRAKRTQGGHIVRPQMHLPTEFAVQNTGEPPRNADVAEIVDDLAKNPTDKRRSIHRNNGNGLKRAKIVEQIHNQQNNRNKQQHSLTFQIKLLFQMMLDGVEKDEFKQKRRFAGKDDAVDQMLEFVFGRIGGENGKRRQRDEADGKPADKQVSGHCKAFKKAKRHYRPKRTPCLTDAPEMPSEALPQENAAPPNL”, the “soluble on expression in E. coli” value was “not soluble”.

On to “MDIRLEDEQIKVGDTLLPGVYEGMEVTGDVRSDEEELQSGKRVVHYSYNPTTIRLNLKLLNDADGTPEEKLATIQKVFRPPSQTKPPTYKLVSSHAKARGIGQVMFIRFRSQDTNASDIITVSLEFQETESTTVSVQKVKANTGSGQQYTVKKGDTLWALAKKFNTTVEAIAKANNIANVNLIYVGQKLTIPAASGNASSVASSSAAVDDAEAPKVR”, for which the “soluble on expression in E. coli” value is “not soluble”.

On to “MDISVIDATKVNTETGLHIGESNAPVKMIEFINVRCPYCRKWFEESEELLAQSVKSGKVERIIKLFDKEKESLQRGNVMHHYIDYSAPEQALSALHKMFATQDEWGNLTLEEVATYAEKNLGLKEQKDATLVSAVIAEANAAHIQFVPTIIIGEYIFDESVTEEELRGYIEK”, for which the “soluble on expression in E. coli” value is listed as “soluble”.

Consider “MDITKADEPVIDEKDYPKPSDAELKAKLTPLQYSVTQNKHTERSFSNEYWDNFQPGIYVDITTGEPVFSSNDKFESGCGWPSFTKPIIKDVVHYETDNSFNMQRTEVLSRAGNAHLGHVFDDGPKDKGGLRYCINSASIKFIPLAEMEKAGYGYLIQSIKK”, for which the “soluble on expression in E. coli” value was “not soluble”.

On to “MDKEKVLDKIKKCLALGRSVNEHEAAQALRQAQALMEKYKVNAEDIALSKVSEQKADRKMAFKLAGWQWGVANMIADIFGCKSYQRGKTMMFYGIGNRAETSAYAFDVVYRQISADRRKFLKTCRAGKPSHRTYLADRFCGGWIASAWETVKKFEMSDEEKAIMDGYKKKEYPDMAEARTRDAKSSILQGSKMEYEALTRGMESGKQVKLHYAVNGTGFVKQIGGQT”, for which the “soluble on expression in E. coli” value is given as “not soluble”.

On to “MDKEVTNIVLKRHDSIVKGAQDDREYRGLELTNGIRVLLVSDPTTDKSAAALDVKVGHLMDPWELPGLAHFCEHMLFLGTAKYPTENEYSKFLTDNAGHRNAVTASDHTNYHFDVKPDQLRGALDRFVQFFLSPQFTESATEREVCAVDSEHSNNLNNDLWRLSQVDRSLSKPGHDYAKFGTGNKKTLLEEARKKGVEPRDALLQFYKKWYSSNIMTCCIIGKESLDVLQSHLKTLEFDTIENKKVERKVWNENPYGPEQLGKRIDRKFFAHLIRHKGPGSLLVELKRLGWVNSLKSDSNTIAAGFGILNVTMDLSTGGLENVDEIIQLMLNYIGMLKSFGPQQWIHDELADLSDVKFRFKDKEQPMKMAINIAASLQYIPIEHILSSRYLLTKYEPERIKELLSTLTPSNMLVRVVSQKFKEQEGNTNEPVYGTEMKVTDISPEKMKKYENALKTSHHALHLPEKNEYIATNFGQKPRESVKNEHPKLISDDGWSRVWFKQDDEYNMPKQETKFALTTPIVSQNPRISLISSLWLWCFCDILSEETYNAALAGLGCQFELSPFGVQKQSTDGREAERHASLTLHVYGYDEKQPLFVKHLTSCMINFKIDRTRFEVLFESLKRTLTNHAFSQPYLLTQHYNQLLIVDKVWSKEQLLAVCDSVTLENVQGFAREMLQAFHMELFVHGNSTEKEAIQLSKELMDILKSAAPNSRPLYRNEHNPRREFQLNNGDEYIYRHLQKTHDAGCVEVTYQIGVQNKYDNAVVGLIDQLIKEPVFDTLRTNEALGYIVWTGCRFNCGAVALNIFVQGPKSVDYVLERIEVFLESVRKEIIEMPQDEFEKKVAGMIARLEEKPKTLSNRFKRFWYQIECRQYDFARREKEVKVLKSIGKDDVIALFDKKIRKNAVERRKLVVLVHGKIDDQETLNRIIKKNVESGKKEKEILNLDQLRQSLPVYDLPNAAIDLKPIGVDPLEQKESATVQ”, for which the “soluble on expression in E. coli” value is given as “not soluble”.

“MDKMLEKFEGSILGLSIGDALGMPTEWFTKEEIAEKYGLIDNFVDPKNKFNGILKAGQYTDDTDQTIAILNSFDVRGFNNDIFIKELIKWYNNNPVGMGPTSTKAIEKLIEGDTTGCDSRTCGSSMRVGPLGLFYFGEYDKLKEITIKATKLTHNNDEAIAGALSIAFFVAESVNNVKSEKSIKRCAKFIEDVSYDFSEKILLINDLNSADEAYELFDTGLPAIECVPSAIATFLRTDTFKDGMISCVNAGGDTDSMGSMYGAIAGAYYGVLNIPELWIAGLQNKDLLVDLSKKLYKLRFKKLEHHHHHH”: the “soluble on expression in E. coli” value is “soluble”.

For the origin of these results see the DeepSol protein solubility set.
